From patent US20260152527A1 (SIGHTSTREAM BIOTHERAPEUTICS, published 2026)
Starred links: 1 amine or outer side, 2 acyl side, 3 side chain; linkers in the order of their positions; H or OH if unused. Positions of bridges follow the written chain, without caps; N, C: chain ends. Non-standard residues stand in square brackets, D forms with d. Primed or numbered codes have the meaning given here. *: point of attachment. MoPA = (3-methoxyphenyl)acetic acid (N-terminal cap), COc1cccc(CC(=O)*)c1; Hgln = homoglutamine, NC(=O)CCC[C@H](N[*:1])C(=O)[*:2]; Benzoyl(3,5-(OH)2) = O=C(c1cc(O)cc(O)c1)*; Lys(N3) = [N-]=[N+]=NCCCC[C@H](N)C(=O)O; Orn(N3) = [N-]=[N+]=NCCC[C@H](N)C(=O)O; dPhe(4-F) = N[C@H](Cc1ccc(F)cc1)C(=O)O; Acetyl(4-pyridyl) = O=C(Cc1ccncc1)*; R8 = C=CCCCCCC[C@@](C)(N)C(=O)O; PEG8′ = polyethylene glycol-8; S5 = C=CCCC[C@](C)(N)C(=O)O; Hpra = C#CCC[C@H](N)C(=O)O; dPra = C#CC[C@@H](N)C(=O)O; Nle = CCCC[C@H](N)C(=O)O; Octanoyl = CCCCCCCC(=O)*; Pra = C#CC[C@H](N)C(=O)O

What was measured:
Assay in all cases: cell-based or functional assay
[1] = target: T1, human recombinant MC1R (CHO-K1 stable cell line, GenScript) (human, UniProt Q01726 1-317)
T1 sequence (Q01726 whole entry): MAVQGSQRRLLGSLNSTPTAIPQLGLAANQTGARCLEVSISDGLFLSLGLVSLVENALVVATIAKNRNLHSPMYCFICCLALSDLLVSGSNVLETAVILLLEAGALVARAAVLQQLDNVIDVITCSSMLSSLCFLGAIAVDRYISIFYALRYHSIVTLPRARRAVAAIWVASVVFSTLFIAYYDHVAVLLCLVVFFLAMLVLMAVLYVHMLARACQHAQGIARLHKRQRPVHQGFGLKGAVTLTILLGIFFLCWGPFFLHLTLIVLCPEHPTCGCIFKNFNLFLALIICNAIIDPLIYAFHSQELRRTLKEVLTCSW

[2] = target: T2, human recombinant MC4R (CHO-K1/Gα15 stable cell line, GenScript) (human, UniProt P32245 1-332)
T2 sequence (P32245 whole entry): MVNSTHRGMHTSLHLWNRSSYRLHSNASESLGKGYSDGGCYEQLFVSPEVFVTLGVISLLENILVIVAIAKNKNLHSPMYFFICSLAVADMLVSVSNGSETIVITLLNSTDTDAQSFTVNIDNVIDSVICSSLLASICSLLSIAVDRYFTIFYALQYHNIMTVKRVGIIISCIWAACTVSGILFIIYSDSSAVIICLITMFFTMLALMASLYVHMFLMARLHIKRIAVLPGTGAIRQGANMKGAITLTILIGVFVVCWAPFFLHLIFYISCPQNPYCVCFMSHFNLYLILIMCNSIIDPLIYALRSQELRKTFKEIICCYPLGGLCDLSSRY

[3] = target: T3, human recombinant MC5R (CHO-K1/Ga15 stable cell line, GenScript) (human, UniProt P33032 1-325)
T3 sequence (P33032 whole entry): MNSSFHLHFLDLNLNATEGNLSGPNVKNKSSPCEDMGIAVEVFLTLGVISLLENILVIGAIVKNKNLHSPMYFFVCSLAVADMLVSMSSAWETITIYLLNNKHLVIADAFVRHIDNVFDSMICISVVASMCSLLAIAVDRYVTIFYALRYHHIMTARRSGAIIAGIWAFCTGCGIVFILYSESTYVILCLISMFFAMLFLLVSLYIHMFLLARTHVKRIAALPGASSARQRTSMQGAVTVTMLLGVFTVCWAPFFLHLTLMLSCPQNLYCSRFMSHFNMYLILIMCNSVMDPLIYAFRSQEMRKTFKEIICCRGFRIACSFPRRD

[4] = target: T1, human recombinant MC1R (CHO-K1 stable …); remark: listed apart in the source
[5] = target: T2, human recombinant MC4R (CHO-K1/Gα15 …); remark: listed apart in the source
[6] = target: T3, human recombinant MC5R (CHO-K1/Ga15 …); remark: listed apart in the source
[7] = target: human recombinant MC3R (CHO-K1/Gα15 stable cell line, GenScript) (human, UniProt P41968 1-323)
human recombinant MC3R (CHO-K1/Gα15 stable cell line, GenScript), sequence (P41968 whole entry): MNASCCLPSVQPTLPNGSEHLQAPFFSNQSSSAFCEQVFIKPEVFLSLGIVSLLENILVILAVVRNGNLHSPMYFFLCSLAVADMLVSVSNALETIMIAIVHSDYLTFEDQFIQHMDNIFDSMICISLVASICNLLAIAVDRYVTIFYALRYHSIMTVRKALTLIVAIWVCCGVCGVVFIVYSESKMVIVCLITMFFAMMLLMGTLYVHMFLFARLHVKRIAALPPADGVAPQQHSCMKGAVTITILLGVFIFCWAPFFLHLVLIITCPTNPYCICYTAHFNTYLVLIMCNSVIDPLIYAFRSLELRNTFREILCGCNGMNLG

Row | Binder | MC1R IC50 [1] | MC4R IC50 [2] | MC5R IC50 [3] | EC50(nM)-MC1R [4] | EC50(nM)-MC4R [5] | EC50(nM)-MC5R [6] | MC3R IC50 [7]
1 | {Benzoyl(3,5-(OH)2)}-[Nle][Lys(N3)]H[dPhe(4-F)]RW[Pra]-NH2 (triazole 2-7; not fully specified; printed as HyBA-Nle-[Lys(N3)-His-Dphe(4-F)-Arg-Trp-Pra]-NH2) [KR-072] | 0.0019 nM | 98.6 nM | 78 nM | 0.0019 nM | 98.6 nM | 78 nM | 
2 | Ac-[Nle][Orn(N3)]H[dF]RW[Pra]K-NH2 (triazole 2-7; not fully specified; printed as Ac-Nle-[Orn(N3)-His-DPhe-Arg-Trp-Pra]-Lys-NH2) [KR-065] | 0.027 nM | 36 nM | 70.2 nM |  |  |  | 91.6 nM
3 | Ac-SMEHFRWGKPV-NH2 [KR-002] | 0.44 nM | 34.9 nM | 243 nM |  |  |  | 176 nM
4 | Ac-[R8]EHFRWG[S5]-NH2 (staple 1-8; SMILES CC(=O)N[C@]1(C)CCCCCCC=CCCC[C@@](C)(C(N)=O)NC(=O)CNC(=O)[C@H](Cc2c[nH]c3ccccc23)NC(=O)[C@H](CCCNC(=N)N)NC(=O)[C@H](Cc2ccccc2)NC(=O)[C@H](Cc2c[nH]cn2)NC(=O)[C@H](CCC(=O)O)NC1=O) [KR-015] | 25.8 nM | 485 nM | > 10000 nM |  |  |  | 3000 nM
5 | {Benzoyl(3,5-(OH)2)}-[Nle][Lys(N3)]H[dPhe(4-F)]RW[Pra][Hgln]-NH2 (triazole 2-7; not fully specified; printed as HyBA-Nle-[Lys(N3)-His-Dphe(4-F)-Arg-Trp-Pra]-Hgln-NH2) [KR-071] | 0.0023 nM | 103 nM | 73.9 nM | 0.0023 nM | 103 nM | 73.9 nM | 
6 | {Acetyl(4-pyridyl)}-[Nle][Lys(N3)]H[dF]RW[Pra]-NH2 (triazole 2-7; not fully specified; printed as PyAA-Nle-[Lys(N3)-His-DPhe-Arg-Trp-Pra]-NH2) [KR-074] | 0.023 nM | 20.2 nM | 154 nM |  |  |  | 165 nM
7 | Ac-[Nle][Pra]H[dF]RW[Lys(N3)]K-NH2 (triazole 2-7; not fully specified; printed as Ac-Nle-[Pra-His-DPhe-Arg-Trp-Lys(N3)]-Lys-NH2) [KR-067] | 0.11 nM | 28.7 nM | 79.7 nM |  |  |  | 66.2 nM
8 | Ac-[Nle][Lys(N3)]H[dF]RW[Pra]-NH2 (bridge 2-7; not fully specified (bridges); printed as Ac-Nle-[Lys(N3)-His-DPhe-Arg-Trp-Pra]-NH2) [KR-009] | 0.0109 nM | 45.7 nM | 140 nM | 0.011 nM | 45.7 nM | 140 nM | 
9 | Ac-[Lys(N3)]EHFRWG[Pra]-NH2 (triazole 1-8) [KR-010] | 170 nM | 452 nM | > 10000 nM |  |  |  | 13600 nM
10 | Ac-[Nle][Lys(N3)]HFRW[Pra]-NH2 (triazole 2-7) [KR-008] | 0.4 nM | 74.5 nM | > 10000 nM |  |  |  | 1110 nM
11 | Ac-EHFRWGKP-NH2 [KR-007] | 1.99 nM | 16.4 nM | > 10000 nM |  |  |  | 1400 nM
12 | Ac-[Nle][Orn(N3)]H[dF]RW[Hpra]K-NH2 (triazole 2-7; not fully specified; printed as Ac-Nle-[Orn(N3)-His-DPhe-Arg-Trp-Hpra]-Lys-NH2) [KR-068] | 0.04 nM | 21.8 nM | 40.4 nM |  |  |  | 27.6 nM
13 | Ac-[Nle][Lys(N3)]H[dF]RW[Hpra]K-NH2 (triazole 2-7; not fully specified; printed as Ac-Nle-[Lys(N3)-His-DPhe-Arg-Trp-HPra]-Lys-NH2) [KR-066] | 0.0047 nM | 75.1 nM | 64 nM |  |  |  | 39.9 nM
14 | {Benzoyl(3,5-(OH)2)}-[Nle][Lys(N3)]H[dF]RW[Pra]-NH2 (triazole 2-7; not fully specified; printed as HyBA-Nle-[Lys(N3)-His-DPhe-Arg-Trp-Pra]-NH2) [KR-073] | 0.0041 nM | 13.9 nM | 134 nM | 0.0041 nM | 13.9 nM | 134 nM | 
15 | {MoPA-MoPA}-[Nle][Lys(N3)]H[dF]RW[Pra]K-NH2 (triazole 2-7; not fully specified; printed as MoPA-MoPA-Nle-[Lys(N3)-His-DPhe-Arg-Trp-Pra]-Lys-NH2) [KR-063] | 0.05 nM | 67.1 nM | 99.6 nM |  |  |  | 62.8 nM
16 | Ac-[Nle][Lys(N3)]H[dF]RW[dPra]K-NH2 (triazole 2-7; not fully specified; printed as Ac-Nle-[Lys(N3)-His-DPhe-Arg-Trp-DPra]-Lys-NH2) [KR-070] | 11.8 nM | 84.1 nM | 376 nM |  |  |  | 1630 nM
17 | {Octanoyl-PEG8′}-GGSYSMEHFRWGKPV-NH2 [KR-017] | 0.77 nM | 139 nM | 210 nM |  |  |  | 310 nM
18 | Ac-[Nle][Lys(N3)]H[dPhe(4-F)]RW[Pra]-NH2 (triazole 2-7) [KR-049] | 0.019 nM | 16.1 nM | 25.2 nM | 0.019 nM | 16.1 nM | 25.2 nM | 
